In article PMC6504948:

Molecular target: CD19 on CD19-positive tumor cells (Nalm6, Raji) (human (endogenous in Nalm6 and Raji)) (UniProt P15391)
Chain of UniProt P15391 (P15391 20-556): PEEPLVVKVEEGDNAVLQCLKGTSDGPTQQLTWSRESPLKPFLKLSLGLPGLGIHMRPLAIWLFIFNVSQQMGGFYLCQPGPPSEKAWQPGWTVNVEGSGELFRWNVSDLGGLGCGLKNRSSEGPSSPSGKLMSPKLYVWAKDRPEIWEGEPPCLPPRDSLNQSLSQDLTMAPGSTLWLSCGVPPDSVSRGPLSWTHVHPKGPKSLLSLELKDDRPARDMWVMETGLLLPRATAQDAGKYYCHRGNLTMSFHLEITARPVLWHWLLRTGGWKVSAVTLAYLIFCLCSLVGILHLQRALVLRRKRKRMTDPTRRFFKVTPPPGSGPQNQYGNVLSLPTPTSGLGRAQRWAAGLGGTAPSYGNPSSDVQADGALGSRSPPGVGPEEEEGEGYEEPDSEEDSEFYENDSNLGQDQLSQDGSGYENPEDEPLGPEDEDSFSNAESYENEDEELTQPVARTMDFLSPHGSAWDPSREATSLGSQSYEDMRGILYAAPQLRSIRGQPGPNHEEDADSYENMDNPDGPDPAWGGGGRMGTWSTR

conversion of transduced primary T cells into a CD69+/CD25+ phenotype after overnight co-culture with Nalm6 cells: 50%
Substance: γ-TRuC (CD19-specific T cell receptor fusion construct: FMC63 scFv fused to full-length human CD3γ) (from UniProt P09693 23-182)
